Here are results for two molecules from US20170219602A1.

Test [1] addresses IgE antibodies of serum A. Nature of the test: ImmunoCAP inhibition, inhibitor 100 µg/ml, cat dander extract solid phase.
For test [2], the target named is IgE antibodies of serum D. The description is as above.
Test [3] has as its target IgE antibodies of serum B. The description is as above.
In test [4] the target is IgE antibodies of serum C. The description is as above.
For test [5], the target named is IgE antibodies of serum E. Described as above.
Test [6] deals with IgE antibodies of serum A. The test is described as follows: ImmunoCAP inhibition, inhibitor 100 µg/mL, competitor rFel d 1 on solid phase.
For test [7], the target named is IgE antibodies of serum D. The description is as above.
Test [8] deals with IgE antibodies of serum B. The description is as above.
Test [9] has as its target IgE antibodies of serum C. The test is described as above.
Test [10] has as its target IgE antibodies of serum E. Described as above.
Test [11] addresses IgE antibodies of serum A. Nature of the test: ImmunoCAP inhibition, inhibitor 100 µg/mL, horse dander extract solid phase.
Test [12] has as its target IgE antibodies of serum D. Described as above.
Test [13] deals with IgE antibodies of serum B. Described as above.
The target in test [14] is IgE antibodies of serum C. The test is described as above.
The target of test [15] is IgE antibodies of serum E. The description is as above.
For test [16], the target named is IgE antibodies of serum A. The test is described as follows: ImmunoCAP inhibition, inhibitor 100 µg/ml, horse dander extract solid phase.
Test [17] addresses IgE antibodies of serum D. The description is as above.
The target of test [18] is IgE antibodies of serum B. Described as above.
The target of test [19] is IgE antibodies of serum C. The description is as above.
The target in test [20] is IgE antibodies of serum E. Described as above.
Test [21] has as its target IgE antibodies of serum A. The test is described as follows: ImmunoCAP inhibition, inhibitor 100 µg/mL, competitor rEqu c s on solid phase.
For test [22], the target named is IgE antibodies of serum D. The test is described as above.
Test [23] deals with IgE antibodies of serum B. Described as above.
The target of test [24] is IgE antibodies of serum C. The test is described as above.
In test [25] the target is IgE antibodies of serum E. Described as above.

B1: recombinant Equ c 15k (protein, from a related filing, horse)
chain 1: ATCPAVATDIASFFLLPDSLFKLQLIKYQAPPEAKDATMQVKQCINEISAGDRYIITETLGKIVLQCGA
chain 2: GSGCQLLEDVVEKTITAELSPAEYVEAVQEFIPDEATEKAAIQLKQCYLKQSNETLNDFRTMMNSMYNSAYCALF
Take B1: the Inhibition (%) was -2% in test [1]; 0% in [2]; 6% in [3]; -2% in test [4]; 4% in [5]; -5% in test [6]. The Inhibition (%) in test [7] is -2%; in [8] it was -4%; in test [9], -6%; in [10], -3%; in test [11] it was -10%; in [12], -6%. Moreover, the Inhibition (%) in test [13] is -2%; in [14], 0%; in [15], -10%; in test [16] it was -5%; in test [17], 4%; in test [18] it was -2%. In addition, the Inhibition (%) in test [19] was 5%; in test [20], 2%; in test [21] it was 12%; in [22], 8%; in [23], 5%; in test [24], 7%. In addition, in test [25], the Inhibition (%) was determined as 4%.

B2: recombinant single chain Equ c s ab (protein)
chain: MDICPAVKEDVNIFLTGTPDDYVKKVSQYQRNPVILANAEKLKNCIDKKLTAEDKENALSVLEKIYSSDFCGGGGSGGGGSGGGGSCPSFYAVLGVLSLGSKTLLDTSLNLVNATEPEKVAMGKIQDCYNEAGVITKISDLIIMGTITTSPECISHALSTLTTDVQEGISKLNPLGRLEHHHHHH
Turning to B2, the Inhibition (%) in test [6] is -7%; in [7], 5%; in [8], -3%; in test [9], -2%; in test [10], 7%; in test [11] it was 96%. Further, the Inhibition (%) in [12] turned out to be 96%; in test [13], 93%; in test [14], 96%; in test [15] it was 98%; in [21] it was 60%; in test [22], 59%. Besides, the results for the Inhibition (%) in test [23], in test [24] and in test [25] were 62%, 62% and 76%, respectively.
